Test results reported in paper PMC11079029, “Intramolecular autoinhibition regulates the selectivity of PRPF40A tandem WW domains for proline-rich motifs” (Nature Communications, 2024).
Several values for one entry are separate records, joined by “and”; a condition that tells them apart may be missing. Identical values can stand only once.

B1: GB1-SF1 Pro A (residues 410-468) (domain or fragment, UniProt Q15637 410-468, looked up)
chain: GHPMQHNPNGPPPPWMQPPPPPMNQGPHPPGHHGPPPMDQYLGSTPVGSGVYRLHQGKG
notes: SF1 (splicing factor 1) residues 410-468 of the proline-rich C-terminal region; pET24 vector with 6xHis, GB1 and TEV site as N-terminal cassette, not cleaved; source: E. coli BL21(DE3), purified (Ni-NTA, SEC); not shown: GB1, N-terminal, kept
B2: GB1-SF1 Pro B (residues 468-539) (domain or fragment, UniProt Q15637 468-539, looked up)
chain: GMMPPPPMGMMPPPPPPPSGQPPPPPSGPLPPWQQQQQQPPPPPPPSSSMASSTPLPWQQNTTTTTTSAGTG
notes: SF1 (splicing factor 1) residues 468-539 of the proline-rich C-terminal region; pET24 vector with 6xHis, GB1 and TEV site as N-terminal cassette, not cleaved; source: E. coli BL21(DE3), purified (Ni-NTA, SEC); not shown: GB1, N-terminal, kept
B3: GB1-SF1 Pro C (residues 539-594) (domain or fragment, UniProt Q15637 539-594, looked up)
chain: GSIPPWQQQQAAAAASPGAPQMQGNPTMVPLPPGVQPPLPPGAPPPPPPPPPGSAG
notes: SF1 (splicing factor 1) residues 539-594; pET24 vector with 6xHis, GB1 and TEV site as N-terminal cassette, not cleaved; source: E. coli BL21(DE3), purified (Ni-NTA, SEC); not shown: GB1, N-terminal, kept
B4: GB1-SF1 Pro ABCD (residues 410-639) (domain or fragment, UniProt Q15637 410-639, looked up)
chain: GHPMQHNPNGPPPPWMQPPPPPMNQGPHPPGHHGPPPMDQYLGSTPVGSGVYRLHQGKGMMPPPPMGMMPPPPPPPSGQPPPPPSGPLPPWQQQQQQPPPPPPPSSSMASSTPLPWQQNTTTTTTSAGTGSIPPWQQQQAAAAASPGAPQMQGNPTMVPLPPGVQPPLPPGAPPPPPPPPPGSAGMMYAPPPPPPPPMDPSNFVTMMGMGVAGMPPFGMPPAPPPPPPQN
notes: SF1 (splicing factor 1) residues 410-639, the complete proline-rich C-terminal region; pET24 vector with 6xHis, GB1 and TEV site as N-terminal cassette, not cleaved; also called complete C-terminal region of SF1; source: E. coli BL21(DE3), purified (Ni-NTA, SEC); not shown: GB1, N-terminal, kept
B5: GB1-SF1 Pro BC (residues 468-594) (domain or fragment, UniProt Q15637 468-594, looked up)
chain: GMMPPPPMGMMPPPPPPPSGQPPPPPSGPLPPWQQQQQQPPPPPPPSSSMASSTPLPWQQNTTTTTTSAGTGSIPPWQQQQAAAAASPGAPQMQGNPTMVPLPPGVQPPLPPGAPPPPPPPPPGSAG
notes: SF1 (splicing factor 1) residues 468-594; pET24 vector with 6xHis, GB1 and TEV site as N-terminal cassette, not cleaved; source: E. coli BL21(DE3), purified (Ni-NTA, SEC); not shown: GB1, N-terminal, kept
B6: GB1-SF3A1 C-ter Pro (residues 552-683) (domain or fragment, UniProt Q15459 552-683, looked up)
chain: EIPQQPPPPSSATNIPSSAPPITSVPRPPTMPPPVRTTVVSAVPVMPRPPMASVVRLPPGSVIAPMPPIIHAPRINVVPMPPSAPPIMAPRPPPMIVPTAFVPAPPVAPVPAPAPMPPVHPPPPMEDEPTSK
notes: pET24 vector with 6xHis, GB1 and TEV site as N-terminal cassette, not cleaved; source: E. coli BL21(DE3), purified (Ni-NTA, SEC); not shown: GB1, N-terminal, kept
B7: GB1-SF1 Pro CD (residues 539-639) (domain or fragment, UniProt Q15637 539-639, looked up)
chain: GSIPPWQQQQAAAAASPGAPQMQGNPTMVPLPPGVQPPLPPGAPPPPPPPPPGSAGMMYAPPPPPPPPMDPSNFVTMMGMGVAGMPPFGMPPAPPPPPPQN
notes: SF1 (splicing factor 1) residues 539-639; pET24 vector with 6xHis, GB1 and TEV site as N-terminal cassette, not cleaved; source: E. coli BL21(DE3), purified (Ni-NTA, SEC); not shown: GB1, N-terminal, kept
B8: GB1-SF3A1 Middle Pro (residues 364-413) (domain or fragment, UniProt Q15459 364-413, looked up)
chain: EGQKVPPPPETPMPPPLPPTPDQVIVRKDYDPKASKPLPPAPAPDEYLVS
notes: SF3A1 residues 364-413, proline-rich region with a PPLP motif; pET24 vector with 6xHis, GB1 and TEV site as N-terminal cassette, not cleaved; also called SF3A1 region (364-413); source: E. coli BL21(DE3), purified (Ni-NTA, SEC); not shown: GB1, N-terminal, kept
B9: GB1-SF1 Pro BCD (residues 468-639) (domain or fragment, UniProt Q15637 468-639, looked up)
chain: GMMPPPPMGMMPPPPPPPSGQPPPPPSGPLPPWQQQQQQPPPPPPPSSSMASSTPLPWQQNTTTTTTSAGTGSIPPWQQQQAAAAASPGAPQMQGNPTMVPLPPGVQPPLPPGAPPPPPPPPPGSAGMMYAPPPPPPPPMDPSNFVTMMGMGVAGMPPFGMPPAPPPPPPQN
notes: SF1 (splicing factor 1) residues 468-639; pET24 vector with 6xHis, GB1 and TEV site as N-terminal cassette, not cleaved; source: E. coli BL21(DE3), purified (Ni-NTA, SEC); not shown: GB1, N-terminal, kept
B10: GB1-SF1 Pro D (residues 594-639) (domain or fragment, UniProt Q15637 594-639, looked up)
chain: GMMYAPPPPPPPPMDPSNFVTMMGMGVAGMPPFGMPPAPPPPPPQN
notes: SF1 (splicing factor 1) residues 594-639, the very C-terminal region; pET24 vector with 6xHis, GB1 and TEV site as N-terminal cassette, not cleaved; source: E. coli BL21(DE3), purified (Ni-NTA, SEC); not shown: GB1, N-terminal, kept
B11: GB1-SF1 Pro A (residues 410-468) (domain or fragment, UniProt Q15637 410-468, looked up)
chain: GHPMQHNPNGPPPPWMQPPPPPMNQGPHPPGHHGPPPMDQYLGSTPVGSGVYRLHQGKG
notes: splicing factor 1 (SF1), residues 410-468 of the proline-rich C-terminal region; His6-GB1-TEV site cassette of the pET24 vector, not cleaved; source: E. coli BL21(DE3), purified (Ni-NTA, SEC); not shown: GB1, N-terminal, kept
B12: GB1-SF1 Pro B (residues 468-539) (domain or fragment, UniProt Q15637 468-539, looked up)
chain: GMMPPPPMGMMPPPPPPPSGQPPPPPSGPLPPWQQQQQQPPPPPPPSSSMASSTPLPWQQNTTTTTTSAGTG
notes: splicing factor 1 (SF1), residues 468-539 of the proline-rich C-terminal region; His6-GB1-TEV site cassette of the pET24 vector, not cleaved; source: E. coli BL21(DE3), purified (Ni-NTA, SEC); not shown: GB1, N-terminal, kept
B13: GB1-SF1 Pro C (residues 539-594) (domain or fragment, UniProt Q15637 539-594, looked up)
chain: GSIPPWQQQQAAAAASPGAPQMQGNPTMVPLPPGVQPPLPPGAPPPPPPPPPGSAG
notes: splicing factor 1 (SF1), residues 539-594 of the proline-rich C-terminal region (holds the WWbs motif 575-590); His6-GB1-TEV site cassette of the pET24 vector, not cleaved; source: E. coli BL21(DE3), purified (Ni-NTA, SEC); not shown: GB1, N-terminal, kept

Each binder was assayed against T1, PRPF40A WW12 (tandem WW domains, residues 141-236) (human, UniProt O75400 141-236) (assay: ITC; MicroCal PEAQ-ITC, 25 °C, 20 mM sodium phosphate pH 6.5, 100 mM NaCl; GB1-tagged SF1/SF3A1 constructs in the syringe, WW12 in the cell (N sites <1: more than one WW tandem on one construct); one-site model; apparent). Conditions: both partners purified.
T1 construct: pETM11 vector (NcoI/KpnI); also called PRPF40A WW tandem; isolated WW domains; source: E. coli BL21(DE3), purified (Ni-NTA, TEV cleavage, reverse Ni-NTA, SEC); not shown: His6, N-terminal, cleaved
With B1 the Kd was 24.8 µM and 25.4 µM and 25.1 µM and the “stoichiometry N” value was 0.97 and 1 and 0.99.
With B2 the Kd was 15.7 µM and 16.1 µM and 20.6 µM and the “stoichiometry N” value was 1.3 and 1.15.
B3 was tested, and the Kd was 2.1 µM and 1.94 µM and 2.02 µM and the “stoichiometry N” value was 0.87 and 0.88.
With B4 the “stoichiometry N” value was 0.33 and 0.23 and 0.28.
For B5, the “stoichiometry N” value was 0.5 and 0.6 and 0.53.
In the case of B6, the “stoichiometry N” value is reported as 0.25 and 0.28 and 0.27.
In the case of B7, the “stoichiometry N” value is reported as 0.42 and 0.38 and 0.36 and 0.39.
With B8 the Kd was 8.1 µM and 9.6 µM and 8.86 µM and the “stoichiometry N” value was 0.7 and 0.42 and 0.56.
For B9, the “stoichiometry N” value was 0.3 and 0.26 and 0.28.
In the case of B10, the Kd is reported as 10.3 µM and 9.94 µM and 10.1 µM and the “stoichiometry N” value is reported as 0.84 and 0.9 and 0.87.

Each binder was assayed against T2, PRPF40A WW12 (tandem WW domains, residues 141-236) (human, UniProt O75400 141-236) (assay: ITC; GB1-peptide or GB1-SF1 construct in the cell, PRPF40A WW12 in the syringe (as shown in Supplementary Figures 7 and 16A); 25 °C, 20 mM sodium phosphate pH 6.5, 100 mM NaCl; one-site binding model; at least duplicates; affinities apparent). Conditions: both partners purified.
T2 construct: A few vector residues probably remain at the N-terminus after TEV cleavage (pETM11, NcoI site); 15N-labelled in the NMR experiments; also called PRPF40A WW tandem; WW12 wt; source: E. coli BL21(DE3), purified (Ni-NTA, TEV digestion, reverse Ni-NTA, SEC); not shown: His6, N-terminal, cleaved
With B11 the Kd was 25.1 ± 6.5 µM.
B12 gave a Kd of 20.6 ± 4.9 µM.
Binder PPPPPPPPPPPPP [GB1-polyproline peptide P13] has a Kd of 8.54 ± 1.46 µM.
Work on B13 yielded a Kd of 2.02 ± 0.09 µM.
Work on PPPPPPPPPPPPPPPPPPP [GB1-polyproline peptide P19] yielded a Kd of 6.76 ± 0.96 µM.
With PPPPPPPPPPPPPPPPPPPPPPPPPPPPP [GB1-polyproline peptide P29] the Kd was 9.15 ± 1.85 µM.
With PPPPPPPPPPPPPPPPPPPPPP [GB1-polyproline peptide P22] the Kd was 9.29 ± 0.88 µM.
